The target in test [1] is T1, recombinant mouse EphB3-Fc fusion protein (mouse, UniProt P54754 30-537, limits assumed).
T1 construct: also called mEphB3; not shown: Fc part, not described
T1 sequence (looked up): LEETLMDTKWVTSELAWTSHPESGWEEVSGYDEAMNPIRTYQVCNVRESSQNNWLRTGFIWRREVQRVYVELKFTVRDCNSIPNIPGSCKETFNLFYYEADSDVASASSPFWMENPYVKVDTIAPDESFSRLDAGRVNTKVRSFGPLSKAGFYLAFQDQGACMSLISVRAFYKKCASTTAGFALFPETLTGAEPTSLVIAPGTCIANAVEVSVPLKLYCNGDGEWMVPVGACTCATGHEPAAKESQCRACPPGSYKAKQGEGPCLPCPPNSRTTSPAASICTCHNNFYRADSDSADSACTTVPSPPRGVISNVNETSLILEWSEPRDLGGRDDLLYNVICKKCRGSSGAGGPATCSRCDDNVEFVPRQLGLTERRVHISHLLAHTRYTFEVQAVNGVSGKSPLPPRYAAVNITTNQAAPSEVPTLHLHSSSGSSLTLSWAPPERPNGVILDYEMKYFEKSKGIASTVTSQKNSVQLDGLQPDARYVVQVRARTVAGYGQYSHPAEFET
The experiment in a line: ELISA: biotinylated mEphrinB2 (250 ng/mL) on coated mEphB3, with or without 100 µg/mL anti-EphB4 Fab. The protocol: (§1) A 96-well plate was coated with recombinant mEphB3, mEphA4 and hEphB4 in PBS o/n at 4° C. (5 μg/mL; 100 μL/well). The next day, the antigen was discarded and the plate blocked with 3% BSA/PBS (300 μl/well) for 2 hrs at room temperature (RT). Blocking solution was discarded and anti-EphB4 Fabs were added to the wells at a concentration of 100 μg/mL in 1% BSA/PBS and incubated for 30 min at RT. Recombinant biotinylated murine EphrinB2 was added at a final concentration of 250 ng/mL and incubated at RT for a further 30 min. The plate was washed and bound EphrinB2 was detected with Streptavidin-HRP (incubation 30 min at RT) and chemifluorescent substrate.
Background: ELISA stands for enzyme-linked immunosorbent assay.

For test [2], the target named is T2, recombinant mouse EphA4-Fc fusion protein (mouse, UniProt Q03137 20-547, limits assumed).
T2 construct: also called mEphA4; not shown: Fc part, not described
T2 sequence (Q03137 20-547 limits assumed): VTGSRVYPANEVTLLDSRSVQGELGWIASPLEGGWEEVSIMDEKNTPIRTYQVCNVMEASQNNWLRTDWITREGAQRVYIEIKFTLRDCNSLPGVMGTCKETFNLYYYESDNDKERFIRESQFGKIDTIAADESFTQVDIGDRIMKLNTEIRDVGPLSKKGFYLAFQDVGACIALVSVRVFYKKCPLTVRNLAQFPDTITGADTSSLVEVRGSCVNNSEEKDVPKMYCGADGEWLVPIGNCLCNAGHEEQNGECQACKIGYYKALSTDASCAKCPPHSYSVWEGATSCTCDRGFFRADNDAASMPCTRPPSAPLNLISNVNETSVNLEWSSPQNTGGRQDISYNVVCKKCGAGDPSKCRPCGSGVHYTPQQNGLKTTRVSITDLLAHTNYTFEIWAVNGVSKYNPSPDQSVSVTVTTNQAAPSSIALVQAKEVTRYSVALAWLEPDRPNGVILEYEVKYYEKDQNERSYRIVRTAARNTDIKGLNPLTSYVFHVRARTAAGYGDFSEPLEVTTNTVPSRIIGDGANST
The experiment in a line: ELISA: biotinylated mEphrinB2 on coated mEphA4. The protocol: as §1

Test [3] deals with T3, recombinant human EphB4-Fc fusion protein (human, UniProt P54760 16-539).
T3 construct: extracellular domain; also called hEphB4; hu EphB4-Fc
T3 sequence (looked up): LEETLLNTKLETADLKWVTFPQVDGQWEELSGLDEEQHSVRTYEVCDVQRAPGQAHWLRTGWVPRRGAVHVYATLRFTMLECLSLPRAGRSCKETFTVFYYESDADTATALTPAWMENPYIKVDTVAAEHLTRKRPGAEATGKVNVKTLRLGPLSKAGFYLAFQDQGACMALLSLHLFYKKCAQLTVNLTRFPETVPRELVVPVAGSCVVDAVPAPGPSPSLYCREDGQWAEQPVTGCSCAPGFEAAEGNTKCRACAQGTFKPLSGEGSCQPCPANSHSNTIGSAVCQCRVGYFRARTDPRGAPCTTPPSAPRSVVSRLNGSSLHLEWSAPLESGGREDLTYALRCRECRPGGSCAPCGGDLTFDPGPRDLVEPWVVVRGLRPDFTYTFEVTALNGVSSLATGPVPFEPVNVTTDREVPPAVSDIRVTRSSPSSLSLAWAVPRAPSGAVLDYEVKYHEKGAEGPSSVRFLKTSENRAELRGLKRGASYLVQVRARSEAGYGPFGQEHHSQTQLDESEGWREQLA
The test can be described thus: ELISA: biotinylated mEphrinB2 (250 ng/mL) on coated hEphB4, with or without 100 µg/mL anti-EphB4 Fab. The protocol: as §1

Test [4] deals with T4, myc-tagged human EphB4 on transfected CHO cells (human, UniProt P54760 16-987).
T4 construct: whole, on cells; also called CHO-EphB4; CHO-hEphB4; not shown: myc tag
T4 sequence (looked up): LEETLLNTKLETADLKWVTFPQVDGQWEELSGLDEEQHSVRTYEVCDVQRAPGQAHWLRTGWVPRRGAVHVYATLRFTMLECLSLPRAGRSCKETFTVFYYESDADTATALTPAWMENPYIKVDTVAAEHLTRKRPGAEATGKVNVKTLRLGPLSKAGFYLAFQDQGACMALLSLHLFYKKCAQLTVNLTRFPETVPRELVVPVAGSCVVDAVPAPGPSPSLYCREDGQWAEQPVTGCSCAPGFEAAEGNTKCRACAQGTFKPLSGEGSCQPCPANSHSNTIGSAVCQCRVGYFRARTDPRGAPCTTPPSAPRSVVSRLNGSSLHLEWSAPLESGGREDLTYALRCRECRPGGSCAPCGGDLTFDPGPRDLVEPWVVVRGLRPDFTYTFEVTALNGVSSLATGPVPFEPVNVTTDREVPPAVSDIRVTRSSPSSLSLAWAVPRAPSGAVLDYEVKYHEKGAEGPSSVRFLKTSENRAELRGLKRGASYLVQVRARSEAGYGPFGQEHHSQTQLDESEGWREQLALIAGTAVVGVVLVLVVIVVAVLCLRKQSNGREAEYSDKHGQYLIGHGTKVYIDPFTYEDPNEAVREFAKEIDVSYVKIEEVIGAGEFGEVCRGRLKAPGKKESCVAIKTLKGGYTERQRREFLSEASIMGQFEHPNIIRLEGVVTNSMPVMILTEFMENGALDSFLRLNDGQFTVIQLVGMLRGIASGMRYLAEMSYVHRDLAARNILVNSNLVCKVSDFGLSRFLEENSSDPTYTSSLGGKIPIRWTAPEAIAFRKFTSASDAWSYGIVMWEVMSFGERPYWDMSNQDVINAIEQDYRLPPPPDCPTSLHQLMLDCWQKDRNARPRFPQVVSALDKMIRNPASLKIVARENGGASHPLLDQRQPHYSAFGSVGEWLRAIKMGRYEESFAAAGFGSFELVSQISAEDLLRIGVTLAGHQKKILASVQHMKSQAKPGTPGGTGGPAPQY
The experiment in a line: FACS titration of IgG4-Pro on CHO-EphB4 cells; n = 1. The protocol:
(§2) For the determination of EC50 values, the 12 final IgGs were analyzed on CHO-EphB4 cells in FACS. The EC50 values of the IgGs, determined in two independent experiments, are given in Table 11 and are compared to the EC50 values of the corresponding Fab. […] Again, as already seen for the Fab, the EC50 values of the MOR07310 pool were slightly better than those of the MOR03641 pool.

Test [5] deals with T4, myc-tagged human EphB4 on transfected …. The experiment in a line: FACS competition on CHO-EphB4 cells, competitor murine ephrin-B2. The protocol: (§3) C50 values (i.e. IgG4-Pro inhibition of ligand binding) were determined in FACS. […] Receptor-bound ephrin-B2 was detected via biotinylated anti-mouse ephrin-B2 antibody (R&D Systems) and streptavidin-PE. The IC50 values of the IgGs, determined in two independent experiments, are given in Table 11 and are compared to the IC50 values of the corresponding Fab. […] Again, as already seen for the Fab, the IC50 values of the MOR07310 pool were slightly better than those of the MOR03641 pool.

For test [6] the target is unchanged. The test can be described thus: FACS, IgG4-Pro inhibition of murine ephrin-B2 binding to CHO-EphB4 cells. The protocol: as §3
(In general: A flow cytometer gives signals particle by particle.)

The target is the same in test [7]. The experiment in a line: FACS, IgG4-Pro inhibition of murine ephrin-B2 binding to CHO-EphB4 cells; end tied by Table 11 (11.55). The protocol:
as §3

Test [8] has the same target. The test can be described thus: FACS titration of IgG4-Pro on CHO-EphB4 cells; end tied by Table 11 (4.83). The protocol:
as §2

For test [9] the target is unchanged. The test can be described thus: FACS titration of IgG4-Pro on CHO-EphB4 cells. The protocol: as §2

B1: recombinant murine EphrinB2 (extracellular domain) (ligand, mouse, UniProt P52800 29-232, looked up)
chain: RSIVLEPIYWNSSNSKFLPGQGLVLYPQIGDKLDIICPKVDSKTVGQYEYYKVYMVDKDQADRCTIKKENTPLLNCARPDQDVKFTIKFQEFSPNLWGLEFQKNKDYYIISTSNGSLEGLDNQEGGVCQTRAMKILMKVGQDASSAGSARNHGPTRRPELEAGTNGRSSTTSPFVKPNPGSSTDGNSAGHSGNNLLGSEVALFA
modifications: biotinylated in Examples 8 and 10-12
notes: extracellular domain; also called mEphrinB2; recombinant biotinylated murine EphrinB2
Take B1: the results for the binding result in test [1], in [2] and in [3] were “binds”, “no binding (tested: 250 ng/mL)” and “binds”, respectively.

B2: MOR07720 IgG4-Pro (antibody, V domains shown)
VH: QVQLVESGGGLVQPGGSLRLSCAASGFTFNNAWMSWVRQAPGKGLEWVSQIEAKQPGGATSYAASVKGRFTISRDNSKNTLYLQMNSLRAEDTAVYYCARKGMSFYNNKYAKSMFDLWGQGTLVTVSS
VL: DIELTQPPSVSVAPGQTARISCSGDNLGKKYVHWYQQKPGQAPVLVIYYDSKRPSGIPERFSGSNSGNTATLTISGTQAEDEADYYCSAWTTTMMHIVFGGGTKLTVLG
notes: Fab MOR07720 converted into human IgG4-Pro format
As usually defined, the EC50 is the midpoint of the concentration-response curve. A higher EC50 goes with a less potent agent. A word on the IC50: it is the concentration needed to halve the response being measured. B2 showed an EC50 in [4] of 0.3 nM. Besides, the “IC50 (read off the curve)” value in [5] was roughly 0.1 nM. The IC50 in [6] is 0.11 nM.

B3: MOR07729 IgG4-Pro (antibody, V domains shown)
VH: QVELVQSGAEVKKPGSSVKVSCKASGGTFSTYAISWVRQAPGQGLEWMGRIIPIFGTANYAQKFQGRVTITADESTSTAYMELSSLRSEDTAVYYCARSSYTILTTYYNYNAMDNWGQGTLVTVSS
VL: DIQMTQSPSSLSASVGDRVTITCRASQNINNFLNWYQQKPGKAPKLLIYGSSILQSGVPSRFSGSGSGTDFTLTISSLQPEDFATYYCQQYDFYLSGTFGQGTKVEIKR
notes: Fab MOR07729 converted into human IgG4-Pro format
Usually EC50 (read off the curve) stands for the midpoint of the concentration-response curve. On to B3, for which the IC50 in test [7] and in test [6] was 11.6 nM in each case. In [5], the “IC50 (read off the curve)” value was roughly 20 nM. Also, the values for the EC50 in test [8] and in [9] were 4.8 nM and 4.83 nM, respectively. Moreover, in test [9], the “EC50 (read off the curve)” value was roughly 5 nM.
